The data set deals with the molecule itself. Briefly: AFM imaging + single-molecule force spectroscopy (AFM-SMFS); purified ectodomains in 50 mM TrisHCl/150 mM NaCl/1 mM CaCl2 pH 7.5; imaging on freshly cleaved mica, tapping mode in liquid; SMFS on NTA-Ni2+ coverslips through the His tags, differing persistence length across a trace taken as two cadherins stretched in parallel.

B1: His-tagged full murine PCDH15 ectodomain (domain or fragment)
chain: not shown
notes: protocadherin 15 (PCDH15), murine, full ectodomain (11 EC domains), UniProtKB Q99PJ1; also called protocadherin 15; full-length PCDH15 ectodomain; not shown: His tag, C-terminal, kept
For the protein B1, the binding result was “binds”.

The values are drawn from publication PMC6746995, “Nanomechanics of tip-link cadherins” (Scientific Reports, 2019).
